From patent publication US20220348674A1 (APOLLOMICS, published 2022)

B1: 6E1 rabbit-human chimeric anti-CD40 antibody (antibody, V domains shown)
VH: QSVEESGGRLVTPGTPLTLTCTVSGFSLSSYAMTWVRQAPGKGLEWLGIIDTIGSTYYASWAKGRFTISKTSTTVDLKITSPTTEDTATYFCVRDYIGSTSGKKLWGRGTLVTVSS
VL: AVLTQTPSSVEAAVGGTVSISCQSSKSVYYKNWLAWYQQKPGQPPKLLIYGASTLASGVPSRFKGSGSGAQFTLTISDVQCDDAATYYCAGGYSSDSDTGFGGGTEVVVK
notes: tested as cell culture supernatant
B2: 3B12 rabbit-human chimeric anti-CD40 antibody (antibody, V domains shown)
VH: QSLEESGGRLVTPGTPLTLTCTVSGIDLSSYAMGWVRQAPGKGLEYIGVIASNSGISYYATWAEGRFTISKASTTVDLKITSPTTEDTATYFCVRGYIGDGALWGPGTLVTVSS
VL: AVLTQTPSSVSAAVGGTVTINCQSSKTVYYNNWLAWYQQKPGQPPKLLIYRASTLASGVPSRFKGSGSGTQFTLTISDVQCDDATTYYCAGGFSSDSDTTFGGGTEVVVK
notes: as for B1
B3: 6H9 rabbit-human chimeric anti-CD40 antibody (antibody, V domains shown)
VH: QSLEESGGRLVTPGTPLTLTCTVSGIDLSSYAMGWVRQAPGKGLEYIGVIASNSGISYYATWAEGRFTISKASTTVDLKITSPTTEDTATYFCVRGYIGDGALWGPGTLVTVSS
VL: AVLTQTPSSVSAAVGGTVTINCQSSKTVYYNNWLAWYQQKPGQPPKLLIYRASTLASGVPSRFKGSGSGTQFTLTISDVQCDDATTYYCAGGFSSDSDTTFGGGTEVVVK
notes: as for B1
B4: 2B8 rabbit-human chimeric anti-CD40 antibody (antibody, V domains shown)
VH: QSLEESGGRLVTPGTPLTLTCTVSGIDLSSYAMGWVRQAPGKGLEYIGVIASNSGISYYATWAEGRFTISKASTTVDLKITSPTTEDTATYFCVRGYIGDGALWGPGTLVTVSS
VL: AVLTQTPSSVSAAVGGTVNIGCQSSKSVYYNNWLAWYQQKPGQPPKLLIYRASTLASGVPSRFKGSGSGTQFTLTISDVQCADATTYYCAGGYSSDSDTTFGGGTEVVVK
notes: as for B1
B5: 7A6 rabbit-human chimeric anti-CD40 antibody (antibody, V domains shown)
VH: QSVEESGGRLVTPGTPLTLACTVSGIDLSTWTMSWVRQAPGKGLEWIGIINSDSNTYYASWAKGRFTISKASTTVDLKMTSLTTEDTATYFCARGVGGYSSGPDYLDIWGPGTLVTVSS
VL: DIVMTQTPASVEAAVGGTVTIKCQASQSIYRSLAWYQQKPGQPPKLLMYHASDLASGVPSRFKGSGSGTEYTLTISDLECADAATYYCQSYYYSGINTYGNAFGGGTEVVVK
notes: as for B1
B6: 1D3 rabbit-human chimeric anti-CD40 antibody (antibody, V domains shown)
VH: QSLEESGGRLVTPGTPLTLTCTASGFSLSNYHMCWVRQAPGKGLEWIGYNSYGGSAYYASWAKGRFTISKTSTTVDLKITRPTTEDTATYFCARAYLDYNGDMGFALWGPGTLVTVSS
VL: EVVMTQTPSSVSAAVGGTVTFKCQASQSISSYLSWYQQKPGQPPKLLIYRASTLESGVPSRFKGSGSGTQFTLTISDLECADAATYYCQTNYYDSGNTYGTFGGGTEVVVK
notes: as for B1
B7: 8C6 rabbit-human chimeric anti-CD40 antibody (antibody, V domains shown)
VH: QSVEESGGRLVTPGTPLTLTCTASGFTITSYYIIWVRQAPGEGLEYIGIIDTGGSADYASWAKGRFTISRTSTTVDLKMTSLTTEDTATYFCARADVGSVGSIWGPGTLVTVSS
VL: DVAMTQTPSSVSAAVGGTVTIECQASQNIYTNLAWYQQKPGQRPKLLIYYASTLASGVPSRFSGSGSGTEFSLTISDLECADAATYYCQCTYIKWRHVCGFGGGTEVVVK
notes: as for B1
B8: 2E11 rabbit-human chimeric anti-CD40 antibody (antibody, V domains shown)
VH: QSLEESGGRLVTPGTPLTLTCTVSGIDLSRYAMGWVRQAPGKGLEFIGIITSNSGDTYYATWAKGRFTISKTSTTVDLKITSPTTEDTATYFCVRGYIGAPNLWGPGTLVTVSS
VL: AVLTQTPSPVSAAVGGTVSISCQSSKTVYYNNYLSWFQQKPGQPPKELIYYASTLSSGVPSRFKGSGSGTQFTLTISDVQCDDAATYYCAGGYNSDSDNTFGGGTEVVVK
notes: tested as cell culture supernatant in the ELISA
B9: 7D2 rabbit-human chimeric anti-CD40 antibody (antibody, V domains shown)
VH: QSVEESGGRLVTPGTPLTLTCTVSGFSLNNYYMGWVRQAPGKGLEYIGWITSGRIAAYANWAKGRFTISKTSTTVDLKITSPTIGDTATHFCATTTTSDAYFFPRLGLWGQGTLVTVSS
VL: AVLTQTPSPVSAAVEGTVTINCQSSQSVDNNRLSWFQQKPGQPPKLLIYDASTLASGVPPRFKGSGSGTQFTLTISDVQCDDAATYYCAGGYSFPSENAFGGGTEVVVK
notes: as for B1
B10: 6G8 rabbit-human chimeric anti-CD40 antibody (antibody, V domains shown)
VH: QSVEESGGRLVTPGTPLTLTCTASGFSLSTYYMTWVRQAPGKGLEAIGYINTGGSTYYASRAKGRFTISKTSTTVDLKMTSPTTEDTATYFCARADASEHNYNGLNIWGPGTLVTVSS
VL: DIVMTQTPASVSEPVGGTVTIKCQASESISSNLAWYQQKPGQPPKFLIYRASTLASGVPSRFKGSGFGTQFTLTISDLECADAATYYCQSNYGSISSSYGNAFGGGTEVVVK
notes: as for B1
B11: 6C2 rabbit-human chimeric anti-CD40 antibody (antibody, V domains shown)
VH: QSVEESGGRLVTPGTPLTLTCTASGFSLSTYYMIWVRQAPGKGLDYIGIISSNGNAYYATWAKGRFTISKTSTTVDLKMTSPTTEDTATYFCARAASIANSYYFNVWGPGTLVTVSS
VL: AVLTQTPSPVSAAVGGTVSISCQSSQSVRDNNWLSWFQQKPGHPPKLLIYGASNLESGVPSRFSGSGSGTEFTLTISDVQCDDAATYYCQGGFSTYSDNSFGGGTEVVVK
notes: as for B1
B12: 7H11 rabbit-human chimeric anti-CD40 antibody (antibody, V domains shown)
VH: QSVEESGGRLVTPGTPLTLTCTVSGIDFSKYWMAWVRQAPGEGLEYIGILSTTGSTYYASWAKGRFTISKTSTTVDLKITSLTTEDTATYFCARGNYIGNGYTWDIWGPGTLVTVSS
VL: DPVLTQTPSSASEPVGGTVTIKCQASQSIGSYLAWYQQKPGQPPKLLIYSPSTLASGVSSRFKGSRSGTEFTLTISDLECADAATYYCQSTAVGITFGGGTEVVVK
notes: as for B1
B13: 7C11 rabbit-human chimeric anti-CD40 antibody (antibody, V domains shown)
VH: QSLEESGGRLVTPGGSLTLTCTVSGIDLSTNGMGWVRQGPGKGLEWIGTIRVTAGTDYANWAKGRFTISKTSSTTVDLKMTSLTTEDTATYFCARGHANNDAYVYFNLWGQGTLVTVSS
VL: AFELTQTPASVEAGVGGTVTIKCQASQSIDRYLAWYQQKSGQPPKLLISYTSKLASGVPSRFKGSGSGTEFTLTISDLECADAATYYCQSYFTSDDANSFGGGTEVVVK
notes: as for B1
B14: 8C10 rabbit-human chimeric anti-CD40 antibody (antibody, V domains shown)
VH: QSLAESGGRLVTPGGSLTLTCTVSGIDLSTDGMGWVRQGPGKGLEWIGTIRVTGGTDFATWAKGRFTIAKTSSTTVDLKMTSLTTEDTATYFCARGHANNDAYVYFNLWGQGTLVTVSS
VL: AFELTQTPASVEAGVGGTVTIKCQASQSIDRYLAWYQQKPGQPPKLLMAAAANLASGVPSRFKGSRSGTEFTLTISDLECADGATYYCQSYFTSDDGNTFGGGTEVVVK
notes: as for B1
B15: 7G6 rabbit-human chimeric anti-CD40 antibody (antibody, V domains shown)
VH: QSLEESGGRLVTPGGSLTLTCTVSGIDLSTNGMGWVRQGPGKGLEWIGTIRVTGGTDYATWAKGRFTISKTSSTTVDLKMTSPTTEDTATYFCARGHANNDAYVYFNLWGQGTLVTVSS
VL: AFELTQTPASVEAGVGGTVTIKCQASQSIDRYLAWYQQKPGQPPKLLISYTSTLTSGVPSRFKGSGSGTEFTLTISDLECADAATYYCQSYFTSDDANTFGGGTEVVVK
notes: as for B1
B16: 2C10 rabbit-human chimeric anti-CD40 antibody (antibody, V domains shown)
VH: QSLEESGGRLVTPGTPLTLTCTASGFTMNRYRMSWVRQAPGKGLEWIGTINNDAGASYASWVNGRFTISKTSSTTVDLKITGPTTEDTATYFCARAGDNIYVDLYNLWGPGTLVTVSS
VL: DVVMTQTPASVSGAVGGTVTIKCQASENIFSYLAWYQQKPGQPPKLLFYGASNLASGVPSRFSGSRSGTEFTLTISDLECADAATYYCQFTNYGSSDIRSPFGGGTEVVVK
notes: as for B1

What follows are binders tested against T1, purified recombinant human CD40 protein (human, UniProt P25942 21-193) (assay: ELISA on coated recombinant human CD40; chimeric antibody supernatant).
T1 construct: also called recombinant CD40
Description: ELISA plate was coated with purified recombinant CD40 protein in coating buffer at lug/ml overnight. After washed for 3 times, the plate was blocked with 1% BSA, and then cell culture supernatants containing rabbit-human chimeric CD40 antibodies were added to the plate. For detection of the antibody binding to CD40 protein, goat anti-human Fc polyclonal antibody conjugated to alkaline phosphatase was used.

T1 sequence (P25942 21-193 limits assumed): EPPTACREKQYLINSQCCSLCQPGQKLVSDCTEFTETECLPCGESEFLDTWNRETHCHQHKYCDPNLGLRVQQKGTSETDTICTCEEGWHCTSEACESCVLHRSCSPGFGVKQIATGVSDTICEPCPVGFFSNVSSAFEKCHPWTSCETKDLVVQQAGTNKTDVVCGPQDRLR

| Binder | OD405 [OD405] |
| --- | --- |
| B1 | 1.82 |
| B2 | 1.57 |
| B3 | 1.97 |
| B4 | 1.64 |
| B5 | 1.99 |
| B6 | 1.51 |
| B7 | 1.97 |
| B8 | 1.79 |
| B9 | 1.82 |
| B10 | 1.77 |
| B11 | 1.96 |
| B12 | 1.46 |
| B13 | 1.8 |
| B14 | 2.09 |
| B15 | 1.82 |
| B16 | 2.14 |
